One substance from paper PMC11906611 can be followed below.

Like-named read-outs stand apart in the source and are kept apart here.

What is called Kd is a measure of binding affinity in units of concentration. A lower Kd goes with tighter binding.

For experiment [1], the target named is FruR labelled with NT-647 (wild type, for MST) (Faecalibacterium prausnitzii A2-165). Nature of the experiment: MST.
For experiment [2] the target is unchanged. Nature of the experiment: MST. The source holds these as a separate data set.

On to “HPr2, unlabeled (wild type, for MST) (natural protein)”, for which the Kd in experiment [1] came to 448 nM; in experiment [2] it was 1.07 nM.
